In patent publication US20190233528A1 (published 2019):

T1: recombinant human CD70 (AviTag, polyhistidine tag and chicken tenascin trimerization domain fused to the … (chicken; human, UniProt P10039 110-139, limits assumed)
T1 construct: domain: trimerization domain; Expressed in Expi293, purified by IMAC and SEC; Copies 3 is inferred from the trimerization domain; not shown: AviTag; polyhistidine tag
T1 sequence: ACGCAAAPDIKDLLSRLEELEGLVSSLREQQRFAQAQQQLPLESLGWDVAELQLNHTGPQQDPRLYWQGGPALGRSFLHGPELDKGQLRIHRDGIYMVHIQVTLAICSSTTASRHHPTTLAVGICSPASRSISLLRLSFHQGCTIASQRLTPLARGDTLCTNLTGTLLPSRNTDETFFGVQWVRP

B1: P08G02 anti-CD70 scFv-Fc fusion (Fc fusion)
chain: EVQLVQSGAEVKKPGESLKISCKGSGYTFPSSWIGWVRQMPGKGLEWMGIIYPDTSHTRYSPSFQGQVTISADKSISTAYLQWSSLKASDTAMYYCARASYFDRGTGYSSWWMDVWGQGTLVTVSSGGGGSGGGGSGGGGSGGGGSELDIQMTQSPSSLSASVGDRVTITCRASQSIYDYLHWYQQKPGKAPKLLIYDASNLQSGVPSRFSGSGSGTDFTLTISSLQPEDFATYYCQQSYTTPLFTFGQGTKVEIK
notes: scFv-Fc expressed in Expi293; not shown: part of the hinge and Fc from a modified human IgG2
B2: 4F11 anti-CD70 scFv-Fc fusion (Fc fusion)
chain: QVTLKESGPVLVKPTETLTLTCTVSGFSLSNARMGVTWIRQPPGKALEWLAHIFSNDEKSYSTSLKSRLTISKDTSKTQVVLTMTNMDPVDTATYYCARIRDYYDISSYYDYWGQGTLVSVSSGGGGSGGGGSGGGGSGGGGSDIQMTQSPSAMSASVGDRVTITCRASQDISNYLAWFQQKPGKVPKRLIYAASSLQSGVPSRFSGSGSGTEFTLTISSLLPEDFATYYCLQLNSFPFTFGGGTKVEIN
notes: as for B1
B3: 9E10 anti-CD70 scFv-Fc fusion (Fc fusion)
chain: QVQLVQSGAEVTKPGASVKVSCKASGYTFTSHYIYWVRQAPGQGLEWMGWINPNSGGTNYAQKFQDRVTMARDTSISTAYMELSRLRSDDTAVYYCAKDRKREYYYNFGMDVWGQGTTVTVSAGGGGSGGGGSGGGGSGGGGSDIQMTQSPSSLSASVGDRVILTCQASQDISNYLHWYQQKPGKAPKLLIYDASDLETGVPSRFSGSGSGADFTFTISNLQPEDFATYYCQQYDHLPITFGQGTRLEIK
notes: as for B1
B4: 11C1 anti-CD70 scFv-Fc fusion (Fc fusion)
chain: QVQLQESGPGLVKPSETLSLNCTVSGGSISYYYWTWIRQPPGKGLEWIGHVIYSGTTNYNPSLKSRVTISVDTSKNQFSLKLNSVTAADTAVYYCVRAEGSLDAFDLWGQGTMVTVSSGGGGSGGGGSGGGGSGGGGSDIQMTQSPSILSASVGDRVTITCRASQSVSSWLAWYQQKPGKAPKVLIYKASSLESGVPSRFSGTGSGTEFTLTISSLQSDDFATYYCQQYNTYSHTFGQGTKLEIK
notes: as for B1
B5: 10H10 anti-CD70 scFv-Fc fusion (Fc fusion)
chain: EVQLVESGGGLVQPGGSLRLSCAVSGFTFSNHNIHWVRQAPGKGLEWISYISRSSSTIYYADSVKGRFTISRDNAKNSLYLQMNSLRDEDTAVYYCARDHAQWYGMDVWGQGTTVTVSSGGGGSGGGGSGGGGSGGGGSDIQMTQSPSSVSASVGDRVTITCRASQGISSWLAWYQQKPGKAPKVLIYAASSLQSGVPSRFSGSGSGTDFTLTISSLQPEDFATYYCQQAFSFPFTFGPGTKVDIK
notes: as for B1
B6: 12D7 anti-CD70 scFv-Fc fusion (Fc fusion)
chain: QVQLVESGGGVVQPGRSLRLSCVASGFTFSDYGIHWVRQAPGMGQEWVAVIWYDGSIKKYSDSVKGRFIISRDNSENTVYLQMNSLRGEDTAIYYCARDEVGTFGAFDFWGQGTKVTVSSGGGGSGGGGSGGGGSGGGGSDIQLTQSPSFLSASVGDRVSITCRASQDISSFLAWYQQKPGKAPVLLIYVASTLQSGVPSRFSGSGSGTEFTLTVSSLQPEDFATYYCQQLHVYPITFGQGTRLEIR
notes: as for B1
B7: P12B09 anti-CD70 scFv-Fc fusion (Fc fusion)
chain: EVQLLESGGGLVQPGGSLRLSCAASGFTFSQYSMSWVRQAPGKGLEWVSAISGGGVSTYYADSVKGRFTISRDNSKNTLYLQMNSLRAEDTAVYYCASDISDSGGSHWYFDYWGQGTLVTVSSGGGGSGGGGSGGGGSGGGGSELDIQMTQSPSSLSASVGDRVTITCRASQYIGRYLNWYQQKRGKAPKLLIHGATSLASGVPSRFSGSGSGTDFTLTISSLQPEDFATYYCQQSYSTTSPTFGQGTKVEIK
notes: as for B1
B8: P08F08 anti-CD70 scFv-Fc fusion (Fc fusion)
chain: EVQLVQSGAEVKKPGESLKISCKGSGYGFTSYWIGWVRQMPGKGLEWMGIIHPDDSDTKYSPSFQGQVTISADKSISTAYLQWSSLKASDTAMYYCASSYLRGLWGGYFDYWGQGTLVTVSSGGGGSGGGGSGGGGSGGGGSELQSVLTQPPSASGTPGQRVTISCSGSSSNIGSNYVNWYQQLPGTAPKLLIYGDYQRPSGVPDRFSGSKSGTSASLAISGLRSEDEADYYCATRDDSLSGSVVFGTGTKLTVL
notes: as for B1
B9: P08E02 anti-CD70 scFv-Fc fusion (Fc fusion)
chain: EVQLVQSGAEVKKPGESLKISCKGSGYSFTSSWIGWVRQMPGKGLEWMGIIYPGDSDTRYSPSFQGQVTISADKSISTAYLQWSSLKASDTAMYYCAKGLSQAMTGFGFDYWGQGTLVTVSSGGGGSGGGGSGGGGSGGGGSELDIQMTQSPSSLSASVGDRVTITCRASQSISRYLNWYQQKPGKAPKLLIYAASILQTGVPSRFSGSGSGTDFTLTISSLQPEDFATYYCQQSYSTTMWTFGQGTKVEIK
notes: as for B1
B10: 8C8 anti-CD70 scFv-Fc fusion (Fc fusion)
chain: EVQLVESGGGLVKPGGSLRLSCVASGFTFSSYSMNWVRQFPGKGLEWVSSISTSSNYIHYADSLQGRFTISRDNAKNSLYLQMSSLRVEDTAVYYCVRDKGTTLTNWYFDLWGRGTLVTVSSGGGGSGGGGSGGGGSGGGGSDMQMTQSPSSLSASVGDRVTLTCRASQGISNYLAWFQLKPGKVPKLLIYAASTLQSGVPSRFSGSGSGTDFALTISSLQPEDVATYYCQKYNSAPLTFGGGTKVEIK
notes: as for B1
B11: 12C4 anti-CD70 scFv-Fc fusion (Fc fusion)
chain: QVQLVQSGAEVKKPGASVKVSCKASGYTFTGYYLHWVRQAPGQGLEWMGWINPNSGGTNYAQKFQGRVTMTRDTSITTAYMELSRLRIDDTAVYYCARDRGVTMIVDGMDDWGQGTTVTVSSGGGGSGGGGSGGGGSGGGGSDIVMTQSPLSLPVTPGEPASISCRSSQSLLHSNGYNYLDWYLQKPGQSPQVLILLGSNRASGVPDRVSASGSGTDFTLKISRMQAEDVGIYYCMQTLQTPFTFGQGTKLEIK
notes: as for B1
B12: 12D6 anti-CD70 scFv-Fc fusion (Fc fusion)
chain: QVQLQESGPGLVKPSQTLSLTCTVSGGSISSDAYYWSWIRQHPGKGLEWIGYMYYSGITYYNPSLKSRVTISVDTSKNQFSLKLSSVTAADTAVYYCARDFGWYFDLWGRGTLVTVSSGGGGSGGGGSGGGGSGGGGSDIQMTQSPSSLSASVGDRVTITCRASQDISNYLAWYQQKPGKVPKLLIYAASTLHSGVPSRFSGSGSGTDFTLTISSLQPDDFAAYYCQKYNSAPRTFGQGTKVEIK
notes: as for B1
B13: 11E1 anti-CD70 scFv-Fc fusion (Fc fusion)
chain: QVQLQESGPGLVKPLQTLSLTCTVSGGSISSDGYYWSWIRQNPGKGLEWIGYMYYSGSTYYNPSLKSRVTISVDTSKNQFSLKLRSVTAADTAVYYCTRDFGWYFDLWGRGTLVTVSSGGGGSGGGGSGGGGSGGGGSDIQMTQSPSSLSASVGDSITITCRASQDIDNYLAWYQQKTGKVPKVLIYAASALQSGVPSRFSGSGSGTDFTLTISSLQPEDVATYYCQNYNSGPRTFGQGTKVEIK
notes: as for B1
B14: 10A1 anti-CD70 scFv-Fc fusion (Fc fusion)
chain: QVQLQESGPGLVKPSETLSLTCTVSGGSISYYYWTWIRQPPGKGLEWIGHIYYSGSTNYNPSLKSRVTISIDTSKNLFSLKLSSVTAADTAVYYCARAEGSLDAFDFWGQGTMVTVSSGGGGSGGGGSGGGGSGGGGSDIQMTQSPSTLSASVGDRVTITCRASQSISTWLAWYQQKPGKAPKVLIYKASSLESGVPSRFSGSGSGTEFILTINSLQPDDFASYYCQQYKSYSHTFGQGTKLEIK
notes: as for B1
B15: P15D02 anti-CD70 scFv-Fc fusion (Fc fusion)
chain: EVQLVQSGAEVKKPGESLKISCKGSGYSFASYWIGWVRQMPGKGLEWMGVIYPGTSETRYSPSFQGQVTISADKSISTAYLQWSSLKASDTAMYYCAKGLSASASGYSFQYWGQGTLVTVSSGGGGSGGGGSGGGGSGGGGSELDIQMTQSPSSLSASVGDRVTITCRASQSIDTYLNWYQQKPGKAPKLLIYSASSLHSGVPSRFSGSGSGTDFTLTISSLQPEDFATYYCQQSYSTTAWTFGQGTKVEIK
notes: as for B1

Target: T1, recombinant human CD70 (AviTag, …)
Test: SPR (Biacore 8K, 37 C): CD70 captured via anti-AviTag antibody on C1 chip, scFv-Fc as analyte; 1:1 Langmuir fit
Protocol: The antibody binding kinetics were determined by surface plasmon resonance (Biacore 8K, GE Healthcare Bio-Sciences, Pittsburgh Pa.) at 37° C. in HBS-T+ (0.01 M HEPES pH 7.4, 0.15 M NaCl, 0.05% v/v Tween20, 1 mg/mL BSA). Recombinant human CD70 diluted in HBS-T+ was captured on a C1 chip immobilized with an anti-AviTag™ antibody. Purified anti-CD70 scFv-Fc fusions were serially diluted into HBS-T+, injected at 30 uL/min for 2-4 min, dissociation monitored for 10 min then the surface regenerated with 75 mM phosphoric acid between injections. Buffer cycles were collected for each anti-CD70 scFv-Fc fusion for double-referencing purposes (double-referencing as described in Myszka, D. G. Improving biosensor analysis. J. Mol. Recognit. 12, 279-284 (1999)). Kinetic association rates (kₒₙ) and dissociation rates (koff) were obtained simultaneously by fitting the double-referenced sensorgrams globally to a 1:1 Langmuir with mass transport model using Biacore 8K Evaluation Software (GE Healthcare Bio-Sciences, Pittsburgh Pa.) then used to calculate an equilibrium dissociation constant (KD) from the kinetic rate constants (KD=koff/kₒₙ). The data was fit to a 1:1 steady state affinity model using Biacore 8K Evaluation Software to determine a steady state equilibrium dissociation constant (SS KD) as needed.

Row | Kd [nM] | koff [s⁻¹] | kon [M⁻¹ s⁻¹] | t1/2 [min] | Binder
1 | 330 | 0.00788 | 23900 | 1.5 | B1
2 | 1.9 | 0.0016 | 825000 | 7.2 | B2
3 | 2.6 | 0.00212 | 825000 | 5.4 | B3
4 | 0.8 | 0.000186 | 224000 | 62.2 | B4
5 | 69.3 | 0.0032 | 46200 | 3.6 | B5
6 | 1.7 | 0.000755 | 441000 | 15.3 | B6
7 | 4.1 | 0.00135 | 330000 | 8.6 | B7
8 | 10.7 | 0.0153 | 1.44e+06 | 0.8 | B8
9 | 5.3 | 0.00438 | 823000 | 2.6 | B9
10 | 15.4 | 0.00159 | 103000 | 7.3 | B10
11 | 0.3 | 0.000455 | 1.56e+06 | 25.3 | B11
12 | 27.3 | 0.00194 | 71200 | 5.9 | B12
13 | 1.7 | 0.001 | 578000 | 11.6 | B13
14 | 1.3 | 0.000773 | 577000 | 14.9 | B14
15 | < 0.3 | < 8.05e-05 | 286000 | > 136 | B15
